Data as given in the supplement of paper PMC9170038.

tested on: MS2 coat protein; assay: apparent KD of MS2 coat protein; higher = weaker reporter binding; details: Eterna round: R107; input ligand: none
Procedure, shortened: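 Apparent KD per design is the median of normalised cluster binding-curve fits. Designed RNA switches transcribed on-chip from Illumina sequencing clusters were titrated with SNAP-549-labelled MS2 coat protein in twofold steps from 0.7 or 1.5 nM to 3 µM, with 0.8–1.5 h down to 10–20 min per step. Buffer: 100 mM Tris-HCl pH 7.5, 80 mM KCl, 4 mM MgCl2, without or with constant ligand.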

Sequence	apparent KD of MS2 coat protein
GGGUACAUCGCGGCCGCCACUUGUGUAAAUACAUGAGGAUCACCCAUGUCGAUGGAGACAUCGGAGAGGACCGGGUGAUGUACCG	80 nM
GCGAUGGAGCGAAGGAGCGUGCUAGUACAUGAGGAUCACCCAUGUGAGUCGCAGCGCUAAGCACAGGUAGGUCGCGCUCCAUCGC [EAB NP+V+V2 #12]	48.4 nM
CACGGCCAUGAGGAUCACCCAUGGAAUAAUCGAGGACCGGUACGGCCGCCACUCGUGGACCGUGACCUGUACGAAAAGUGCAGGA	26.5 nM
CCUAUGCAGUCGGCCGCCACUGAACAUGAGGAUCACCCAUGUAAUUAAAAUUAAGAUCCUGAAAUCAGGACCGGGACUGUAUAGG [Ex Tryptophan B 4]	1520 nM
GGGACACCGGGAAGGAGCGCAUCCAAACCACACAUGAGGAUCACCCAUGUAUAAAUAUGCAUGCAGGUAGGUCGCCCGAUGUCUC [Anrearradi]	90.7 nM
AAAUAAAUACAUGAGGAUCACCCAUGUGAAGGAGCGGCCGUUAGGCCAGGUAGGUCGCGCAUGAAUAACUCCGUGCAAAAGCACA [MAT - Exclusion Arginine A - Mod of Eli - D18]	11.2 nM
AAUCGUAAGGCGGCCGCCACUACACAUGAGGAUCACCCAUGUCUCGCAGGCUUGCGUUGGGUUAGUAGGACCGGGCCAGUAAUAA [Exclusion - Tryptophan B (Freestyle 15)]	32.1 nM
UGGGUUGGACCAGGAAAUGGUCUGACUCACCGAGGACCGGUACGGCCGCCACUCGUAGGUACAUGAGGAUCACCCAUGUCGGUGG [#1 Same State - Tryptophan A Attempt #11 (HarryS)]	23.6 nM
AGACGAGCAAUCAACGGGCGUUUCGUGACGCGAGGACCGGUACGGCCGCCACUCGAGUCUGGACAUGAGGAUCACCCAUGUUAUG [theeternabot_exclusion_MS2_Trp_A_46]	22 nM
GGGCGAGUGGAGCGGCGUGCUCCGCUCCGUCGAGGACCGGUACGGCCGCCACUCGACAUGAGGAUCACCCAUGUGCGAGCUCGCG [#1 Exclusion - Tryptophan A Attempt #13 (HarryS)]	17.6 nM
GCGGACAUGAGGAUCACCCAUGUAAAUCCUCGAGGACCGGUACGGCCGCCACUCGAACGAGUGGCGCGCGAGCGCGCGCUCGCGC [aBa]	30.2 nM
UUAUUUAACGGAAGGAGCGCGGAAUAAUAAGUGGGUAAACAUGAGGAUCACCCAUGUAAACCGCAGGUAGGUCGCCGAUAUUUAU [AstrosEXyARgB#3]	79.3 nM
ACUAGUUGUGCAGAUACCAGAUAUGAGGAUCACCCAUAUUUGGGAUGUUCGCAUCUUCCUGUCCCUUGGCAGCUGUACAUCUAGA [Omei Theo B Exc v7]	37.3 nM
CUCUGAGUGAGAAAUCACUCAGAGGCGGAUACCAGCGAGGUCCAUCGCCCUUGGCAGCCGAACAUGAGGAUCACCCAUGUCGGUA [#1 Same State - Theophylline A Attempt #21 (HarryS)]	10.8 nM
CACAUGAGGAUCACCCAUGUCUGAACUGAAGGAGCGCUAAAUAAGGCAGGUAGGUCGCGGAAUCUUGUGUGCAUAUGCACACGGG [9.T]	20.5 nM
UGUACAGACAUCGAAUUCCUAUGUGCUGAAGGAGCGUCGUUGACGACAGGUAGGUCGCAGUUAACAUGAGGAUCACCCAUGUACA [Arg A Ex t5]	85.8 nM
UCCACAUGAGGAUCACCCAUGUGCCAUGAUACCAGACAUGAAAAUGUCCCUUGGCAGCAUGAGUGAGGCAUCCGAAAGGAUGCCU [Chrlice]	157 nM
AAGGGAGAGUCAGAUACCAGAGUAAGAUGGCAUGGUAAUUACAUGAGGAUCACCCAUGUAUUCCCUUGGCAGCUGACCCUACGUU [Exclusion Theophylline B GF 19]	14.1 nM
GGGCCUAUCUGAAGGAGCGACAUGAGGAUCACCCAUGUCUCCCGUUAUGGGAGUUCUUUAGGUCAGGUAGGUCGCAGGUAGGGCC [#1 Exclusion - Arginine B Attempt #5 (Inspired by Omei)]	14.7 nM
CACAUGAGGAUCACCCAUGUCUGAACUGAAGGAGCGCUAAACAAGGCAGGUAGGUCGCGGAAUCCCGUGUGCAUAUGCACACGGG [9.Z]	15.6 nM

same assay, conditions: Eterna round: R107; input ligand: theophylline 20 uM

Sequence	apparent KD of MS2 coat protein
UAACAUGAGGAUCACCCAUGUUUGAAGGAACGAGGACCGGUACGGCCGCCACUCGACGAGUGGAUGAGAAGUGGGAUUGUGUGCU [Same State Trp A GF8]	17.5 nM
GGGUACAUCGCGGCCGCCACUUGUGUAAAUACAUGAGGAUCACCCAUGUCGAUGGAGACAUCGGAGAGGACCGGGUGAUGUACCG	122 nM
GCGAUGGAGCGAAGGAGCGUGCUAGUACAUGAGGAUCACCCAUGUGAGUCGCAGCGCUAAGCACAGGUAGGUCGCGCUCCAUCGC [EAB NP+V+V2 #12]	26.8 nM
GGUAUAUAGGCGGCCGCCACUGAUUUUCAUAUAUAUAUAACAUGAGGAUCACCCAUGUAGAUAUACAGGACCGGGCCUAUAUAUU [aaaC]	17.7 nM
AAUGUAUGGCACAUGAGGAUCACCCAUGUGCGAGGACCGGUACGGCCGCCACUCGGUCGUGGGUUCUUAUUACUAUACAUUAAUG [XTryp A #14]	12.8 nM
GAUCCUCAUACGGAUACCAGCGAAUAACAUGAGGAUCACCCAUGUAAUAAAGAAAAUAAAUGCCCUUGGCAGCCGAAUAGAUAGU [Same State Theophylline B GF 1]	137 nM
CACGGCCAUGAGGAUCACCCAUGGAAUAAUCGAGGACCGGUACGGCCGCCACUCGUGGACCGUGACCUGUACGAAAAGUGCAGGA	31.7 nM
AACAUGAGGAUCACCCAUGUCCCAUGUGAACGAGGACCGGUACGGCCGCCACUCGAAUAAGGCGGCACAUGAGGAUCACCCACAU [AstrosSSTry#1]	223 nM
AAAUAAAUAACUGAUACCAGUCGGACAACAUGAGGAUCACCCAUGUUCACCCAUGUUGAGGACCCUUGGCAGCAGAAAUAUAAAA [test (nupak+vienna]	116 nM
AGCGACAUGCGUGAUACCAGCUACAUGAGGAUCACCCAUGUGAGUAGGAAACUACUGUGUAGCCCUUGGCAGCACAGUGCAUGUC [Exclusion - Theophylline B (Freestyle 25)]	15.9 nM
CCUAUGCAGUCGGCCGCCACUGAACAUGAGGAUCACCCAUGUAAUUAAAAUUAAGAUCCUGAAAUCAGGACCGGGACUGUAUAGG [Ex Tryptophan B 4]	280 nM
AUCGUACCUGAUGAUACCAGCAAUUGCUCGUGACAUGAGGAUCACCCAUGUGACCAGUGAUGCCCUUGGCAGCAUGGUCGGUGCA [Same State - Theophylline B (Freestyle 22)]	79.3 nM
GGGACACCGGGAAGGAGCGCAUCCAAACCACACAUGAGGAUCACCCAUGUAUAAAUAUGCAUGCAGGUAGGUCGCCCGAUGUCUC [Anrearradi]	121 nM
UGUAACAUGAGGAUCACCCAUGUAAGUGAUACCAGAUAAGUAGUAGUCCCUUGGCAGCAUAUUGGGCAAGUGUAUAGUCUAUACG [Same State - Theophylline A (Freestyle 6)]	65.3 nM
AAAUAAAUACAUGAGGAUCACCCAUGUGAAGGAGCGGCCGUUAGGCCAGGUAGGUCGCGCAUGAAUAACUCCGUGCAAAAGCACA [MAT - Exclusion Arginine A - Mod of Eli - D18]	16.9 nM
AAUCGUAAGGCGGCCGCCACUACACAUGAGGAUCACCCAUGUCUCGCAGGCUUGCGUUGGGUUAGUAGGACCGGGCCAGUAAUAA [Exclusion - Tryptophan B (Freestyle 15)]	43.2 nM
UGGGUUGGACCAGGAAAUGGUCUGACUCACCGAGGACCGGUACGGCCGCCACUCGUAGGUACAUGAGGAUCACCCAUGUCGGUGG [#1 Same State - Tryptophan A Attempt #11 (HarryS)]	34.2 nM
AGACGAGCAAUCAACGGGCGUUUCGUGACGCGAGGACCGGUACGGCCGCCACUCGAGUCUGGACAUGAGGAUCACCCAUGUUAUG [theeternabot_exclusion_MS2_Trp_A_46]	23 nM
GGGCGAGUGGAGCGGCGUGCUCCGCUCCGUCGAGGACCGGUACGGCCGCCACUCGACAUGAGGAUCACCCAUGUGCGAGCUCGCG [#1 Exclusion - Tryptophan A Attempt #13 (HarryS)]	27.1 nM
